# From patent publication US20190360025A1
# Legend:
# [1] = target: insulin-like growth factor II (IGF-II), R&D Systems 292-G2-050 (UniProt P01344); test: c-PLA, buffer; IGF-II 1.00E-06 M
# [2] = target: insulin-like growth factor II (IGF-II), R&D Systems 292-G2-050 (UniProt P01344); test: c-PLA, buffer; IGF-II 1.00E-07 M
# [3] = target: insulin-like growth factor II (IGF-II), R&D Systems 292-G2-050 (UniProt P01344); test: c-PLA, buffer; IGF-II 1.00E-08 M
# [4] = target: insulin-like growth factor II (IGF-II), R&D Systems 292-G2-050 (UniProt P01344); test: c-PLA, buffer; IGF-II 1.00E-09 M
# [5] = target: insulin-like growth factor II (IGF-II), R&D Systems 292-G2-050 (UniProt P01344); test: c-PLA, buffer; IGF-II 1.00E-10 M
# [6] = target: insulin-like growth factor II (IGF-II), R&D Systems 292-G2-050 (UniProt P01344); test: c-PLA, buffer; IGF-II 1.00E-11 M
# [7] = target: insulin-like growth factor II (IGF-II), R&D Systems 292-G2-050 (UniProt P01344); test: t-PLA, buffer; IGF-II 1.00E-06 M
# [8] = target: insulin-like growth factor II (IGF-II), R&D Systems 292-G2-050 (UniProt P01344); test: t-PLA, buffer; IGF-II 1.00E-07 M
# [9] = target: insulin-like growth factor II (IGF-II), R&D Systems 292-G2-050 (UniProt P01344); test: t-PLA, buffer; IGF-II 1.00E-08 M
# [10] = target: insulin-like growth factor II (IGF-II), R&D Systems 292-G2-050 (UniProt P01344); test: t-PLA, buffer; IGF-II 1.00E-09 M
# [11] = target: insulin-like growth factor II (IGF-II), R&D Systems 292-G2-050 (UniProt P01344); test: t-PLA, buffer; IGF-II 1.00E-10 M
# [12] = target: insulin-like growth factor II (IGF-II), R&D Systems 292-G2-050 (UniProt P01344); test: t-PLA, buffer; IGF-II 1.00E-11 M
# [13] = target: insulin-like growth factor II (IGF-II), R&D Systems 292-G2-050 (UniProt P01344); test: SPR (Biacore T200), 1:1 global fit
# [14] = target: insulin-like growth factor II (IGF-II), R&D Systems 292-G2-050 (UniProt P01344); test: SPR, isoaffinity graph
# [15] = target: insulin-like growth factor II (IGF-II), R&D Systems 292-G2-050 (UniProt P01344); test: SPR (Biacore T200), biotinylated antibody on CAP chip, 1:1 fit
# [16] = target: insulin-like growth factor II (IGF-II), R&D Systems 292-G2-050 (UniProt P01344); test: BLI (Octet RED), antibody on protein G sensors, 1:1 global fit
# [17] = target: macrophage migration inhibitory factor (MIF), R&D Systems 289-MF-002 (UniProt P14174); test: c-PLA, buffer; MIF 1.00E-07 M
# UniProt P14174, sequence (P14174 whole entry): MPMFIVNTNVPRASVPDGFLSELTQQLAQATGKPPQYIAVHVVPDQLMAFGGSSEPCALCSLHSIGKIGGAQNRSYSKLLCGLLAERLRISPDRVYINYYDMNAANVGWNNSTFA
# [18] = target: macrophage migration inhibitory factor (MIF), R&D Systems 289-MF-002 (UniProt P14174); test: c-PLA, buffer; MIF 1.00E-08 M
# [19] = target: macrophage migration inhibitory factor (MIF), R&D Systems 289-MF-002 (UniProt P14174); test: c-PLA, buffer; MIF 1.00E-09 M
# [20] = target: macrophage migration inhibitory factor (MIF), R&D Systems 289-MF-002 (UniProt P14174); test: c-PLA, buffer; MIF 1.00E-10 M
# [21] = target: macrophage migration inhibitory factor (MIF), R&D Systems 289-MF-002 (UniProt P14174); test: c-PLA, buffer; MIF 1.00E-11 M
# [22] = target: macrophage migration inhibitory factor (MIF), R&D Systems 289-MF-002 (UniProt P14174); test: c-PLA, buffer; MIF 3.00E-07 M
# [23] = target: macrophage migration inhibitory factor (MIF), R&D Systems 289-MF-002 (UniProt P14174); test: t-PLA, buffer; MIF 1.00E-07 M
# [24] = target: macrophage migration inhibitory factor (MIF), R&D Systems 289-MF-002 (UniProt P14174); test: t-PLA, buffer; MIF 1.00E-08 M
# [25] = target: macrophage migration inhibitory factor (MIF), R&D Systems 289-MF-002 (UniProt P14174); test: t-PLA, buffer; MIF 1.00E-09 M
# [26] = target: macrophage migration inhibitory factor (MIF), R&D Systems 289-MF-002 (UniProt P14174); test: t-PLA, buffer; MIF 1.00E-10 M
# [27] = target: macrophage migration inhibitory factor (MIF), R&D Systems 289-MF-002 (UniProt P14174); test: t-PLA, buffer; MIF 1.00E-11 M
# [28] = target: macrophage migration inhibitory factor (MIF), R&D Systems 289-MF-002 (UniProt P14174); test: t-PLA, buffer; MIF 3.00E-07 M
# [29] = target: macrophage migration inhibitory factor (MIF), R&D Systems 289-MF-002 (UniProt P14174); test: SPR (Biacore T200), 1:1 global fit
# [30] = target: macrophage migration inhibitory factor (MIF), R&D Systems 289-MF-002 (UniProt P14174); test: SPR, isoaffinity graph
# [31] = target: macrophage migration inhibitory factor (MIF), R&D Systems 289-MF-002 (UniProt P14174); test: SPR (Biacore T200), biotinylated antibody on CAP chip, 1:1 fit
# [32] = target: macrophage migration inhibitory factor (MIF), R&D Systems 289-MF-002 (UniProt P14174); test: BLI (Octet RED), antibody on protein G sensors, 1:1 global fit
# UniProt P01344, sequence (P01344 25-91 limits assumed): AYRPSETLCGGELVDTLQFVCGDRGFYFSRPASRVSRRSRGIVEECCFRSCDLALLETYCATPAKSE
substance,measurement,setting,value
affinity-purified polyclonal anti-IGF-II antibody (R&D Systems AF-292-NA),Counts,[1],49700
same,SBR,[1],227
same,Counts,[2],50300
same,SBR,[2],230
same,Counts,[3],12200
same,SBR,[3],56
same,Counts,[4],527
same,SBR,[4],2.4
same,Counts,[5],215
same,SBR,[5],1
same,Counts,[6],171
same,SBR,[6],0.8
same,Counts,[7],4.77e+07
same,SBR,[7],65
same,Counts,[8],5.89e+07
same,SBR,[8],81
same,Counts,[9],1.75e+07
same,SBR,[9],24
same,Counts,[10],641000
same,SBR,[10],0.9
same,Counts,[11],145000
same,SBR,[11],0.2
same,Counts,[12],400000
same,SBR,[12],0.5
same,Kd,[13],51.1 pM
same,koff,[13],2.49e-05 s⁻¹
same,kon,[13],486000 M⁻¹ s⁻¹
same,Kd,[14],> 50 pM
same,Kd,[15],51 pM
same,koff,[15],2.5e-05 s⁻¹
same,kon,[15],490000 M⁻¹ s⁻¹
same,Kd,[16],1170 pM
same,koff,[16],0.000321 s⁻¹
same,kon,[16],274000 M⁻¹ s⁻¹
affinity-purified polyclonal anti-MIF antibody (R&D Systems AF-289-PB),Counts,[17],39600
same,SBR,[17],2330
same,Counts,[18],29800
same,SBR,[18],1750
same,Counts,[19],12300
same,SBR,[19],724
same,Counts,[20],1020
same,SBR,[20],60
same,Counts,[21],96.6
same,SBR,[21],5.7
same,Counts,[22],36900
same,SBR,[22],2170
same,Counts,[23],5.2e+07
same,SBR,[23],27
same,Counts,[24],3.97e+07
same,SBR,[24],21
same,Counts,[25],1.43e+07
same,SBR,[25],7
same,Counts,[26],1.84e+06
same,SBR,[26],1
same,Counts,[27],681000
same,SBR,[27],0.4
same,Counts,[28],4.66e+07
same,SBR,[28],24
same,Kd,[29],82.6 pM
same,koff,[29],9.41e-05 s⁻¹
same,kon,[29],1.14e+06 M⁻¹ s⁻¹
same,Kd,[30],> 50 pM
same,Kd,[31],83 pM
same,koff,[31],9.4e-05 s⁻¹
same,kon,[31],1.1e+06 M⁻¹ s⁻¹
same,Kd,[32],1750 pM
same,koff,[32],0.000532 s⁻¹
same,kon,[32],304000 M⁻¹ s⁻¹
